Laboratory results from US20250129140A1, “ANTI-HCMV ANTIBODIES AND ANTIGEN-BINDING FRAGMENTS THEREOF” (ICAHN SCHOOL OF MEDICINE AT MOUNT SINAI, priority 2021, published 2025).

B1: 14E1 (antibody, V domains shown)
VH: QVQLVQSGAEVKKPGASVKVSCKASGYTFTSYSISWVRQAPGQGLEWMGWINTYNGNTNYAQRVQARVTMTTDTSTSTAYMELRSLRSDDTAVYYCARDHGFFFDYWGQGNLVTVSS
VL: DIQLTQSPSFLSASVGDRVTITCWASQGISSYLAWYQQKPGKAPKLLIYAASTLQSGVPSRFSGSGSGTEFTLTISSLQPEDFATYYCQQLNSYPYTFGQGTQLEIK
B2: 13G1: anti-HCMV gH/gL monoclonal antibody, fusion 3; VH SEQ ID NO:38, VL SEQ ID NO:39; chimeric and fully human IgG1 versions (antibody, V domains shown)
VH: QVTLKESGPVLVKPTETLTLTCTVSGFSLYNARMGVTWIRQPPGKALEWLAHIFSNDERSYTSSLKNRLTISKDTSKSQVVLTMTNMDPVDTATYYCARIDYSNYIGNWFDPWGQGTLVTVSS
VL: DIQMTQSPSSLSASVGDRVTITCRASQSISNYLNWYQQKPGKAPKLLIYAASSLQGGVPSRFSGSGSGTDFTLTISSLQPEDFTTYYCQQSYSTPFTFGGGTKVEIK
modifications: IgG1 constant regions
notes: anti-HCMV gH/gL monoclonal antibody, fusion 3; chimeric and fully human IgG1 versions
B3: 9A12: anti-HCMV gH/gL monoclonal antibody, fusion 2; VH SEQ ID NO:59, VL SEQ ID NO:60; chimeric and fully human IgG1 versions (antibody, V domains shown)
VH: EVQLVESGGVLVQPGGSLRLSCAASGFTFSSHEMNWVRQAPGKGLEWISYISSTGSTIYDADSVKGRFTISRDNAKNSLYLQMNSLRAEDTAVYYCARSSGWYRNYSYGMDVWGQGTTVTVSS
VL: DIQMAQSPSSLSASVGDRVTITCRASQGIYNYLAWFQQKPGKAPKSLIYAASSLQTGVPSKFSGSGSGTDFTLTISNLQPEDFATYYCQQYNSFPRTFGQGTKVEIK
modifications: IgG1 constant regions
notes: anti-HCMV gH/gL monoclonal antibody, fusion 2; chimeric and fully human IgG1 versions

Legend:
[1] = test system: HCMV AD169R; assay: Neutralization by fully human versus chimeric antibody versions; format: cell-based, Human cytomegalovirus; conditions: human IgG1 Fc versus mouse Fc
Method: Increasing concentrations of monoclonal antibodies (0.016-50 μg/mL) were incubated with AD169R (MOI 0.2) to assess neutralizing capacity. Percent infection was quantified using GFP expression at 18 hpi and normalized based on infection with virus alone (no antibody). CMV hyperimmune globulin (CytoGam®) was used as a control (trace on the upper right in FIGS. 8A, 8B, 8C, and 8D). FIG. 8A. […] FIG. 8B. Fully human (hu, comprising human variable and human constant regions) and chimeric (ms, comprising human variable and murine constant regions) versions of 9A12. FIG. 8C. Fully human (hu, comprising human variable and human constant regions) and chimeric (ms, comprising human variable and murine constant regions) versions of 13G1. FIG. 8D. Fully human (hu, comprising human variable and human constant regions) and chimeric (ms, comprising human variable and murine constant regions) versions of 14E1.
For this, the mouse Fc region of these mAbs was replaced with the human IgG1 Fc region.

[2] = test system: HCMV BADrUL131; assay: Dissemination / focus forming unit (FFU) assay in ARPE-19 cells; format: cell-based, Human cytomegalovirus
Method: ARPE-19 or NHDF cells were plates at 50,000 cells per well in a 24 well and infected the following day. TB40/E (MOI 0.01) and AD169RBAD^rUL131 (MOI 0.1 & 0.01) was incubated with either 10 μg/mL or 0.5 μg/mL of antibody one hour prior to addition to cells. Following a 2 hr incubation at 37° C., 5% CO2 the inoculum was removed, and cells were overlaid with 1% low melt temperature sea agarose overlay. The overlay was allowed to solidify at room temp and then 500 μL of media was added before cells were put back into the incubator. At 7 days post infection, the cells were scanned using the brightfield and GFP filters and then placed back into the tissue culture incubator until the assay was stopped by fixation and immunostaining on day 10 or 14 as indicated.
Next, a focus forming unit (FFU) assay was optimized to examine the antibodies ability to block viral replication and dissemination over multiple infection cycles. […] Once the assay was terminated at Day 10 or 14, the cells were fixed and performed immunostaining to quantify total cells by Hoechst or infection using IE1-1 as readout for infection. […] The number of FFUs was quantified per well, using 10,000 μm^2 as a cutoff for plaque area. […] Images were taken on day 7 post infection and the relative number of plaques per well was calculated compared to wells that received an irrelevant control antibody M2E10. […]

[3] = test system: recombinant HCMV pentamer (strain VR1814) consisting of gH, gL, UL128, UL130 and UL131A; assay: Biolayer interferometry (Octet RED) KD determination; format: binding, Human cytomegalovirus; conditions: for kon: association 3 minutes; for kdis: dissociation 3 minutes in PBS
Method: Biolayer interferometry assays were performed using the Octet RED instrument (ForteBio, Inc.) to determine the association (kon) and dissociation (kdis) constants for each antibody. Purified monoclonal antibody was loaded onto the anti-mouse Fc IgG capture (AMC) biosensors using 5-fold dilutions (50-0.016 μg/mL in PBS) for 10 minutes. To determine the kon, the sensors were exposed to the recombinant HCMV pentamer (strain VR1814) consisting of gH, gL, UL128, UL130 and UL131A (Native Antigen, CMV-PENT-100) at a constant concentration of 100 μg/mL in PBS for 3 minutes. To determine the kdis, dissociation was measured over the course of 3 minutes while the sensors were in PBS buffer. KD values were calculated as a ratio of […].
To examine this further, 293 Expi cells were transfected with wildtype gH, wildtype gL, cotransfected with gH and gL (gH+gL), transfected with a single plasmid expressing both gH and gL (gH/gL) or co-transfected a variety of gH mutants and gL. Three days post transfection the cells were harvested and stained with unlabeled primary at 0.5 μg/mL using the antibodies indicated. Transfection efficiency was determined by measuring GFP expression on day 3 and binding was determined by percent Alexa Fluor 647 positive cells using a conjugated secondary. […] The binding profile for 1G9 is most similar to 10F8. Although the ratios of gH, gL and gO plasmid were 1:1:1 it is not certain how efficiently the trimer was assembled following transfection. […] To discern minute differences in antibody binding biolayer interferometry was used, immobilizing each of the purified monoclonal antibodies (50-0.016 μg/mL) onto anti-mouse IgG Fc capture (AMC) biosensors and exposing the sensors to recombinant pentamer (100 μg/mL).

[4] = test system: HCMV; assay: Virus neutralization, summary statements across cell types and strains; format: cell-based, Human cytomegalovirus; conditions: MRC5; TB40/E, AD169R, TR, Towne
Method: AD169R^BADrUL131, TB40E, TR, or Towne was pre-incubated with monoclonal antibodies (starting dilution of 100 μg/mL antibody) was diluted using 5 fold dilutions to achieve a final range of 50-0.016 μg/mL antibody after addition to 25 μL of media containing virus; final MOI 0.2) and incubated at 4° C. for 1 hr before the inoculum was added to the appropriate cell types (ARPE-19, HTR-svNeo, MRC5, or NHDF cells at 10,000 cells per well) for 2 hrs at 37° C., 5% CO2. Following infection, the inoculum was removed and replaced with 100 μL complete DMEM/F-12 media before an overnight incubation at 37° C., 5% CO2.
Cells were fixed using 4% paraformaldehyde (PFA) for 20 minutes at room temp. Cells were then permeabilized using 0.3% Triton X-100 (Thermo Fisher, #HFH10) in PBS and stained with an affinity-purified, polyclonal rabbit anti-IE1-1/2 (0.7 ng/ml) primary and an anti-rabbit Alexa Fluor 647 (1:1000) secondary. To quantify total cells per well, Hoechst (Molecular Probes, #H3570) was diluted 1:100,000 in PBS and incubated with cells for 20 minutes at room temp. Virus neutralization was quantified using a Celigo cytometer (Nexelcom Bioscience). Percent infection was calculated using ((#IE1-1+)/(#Hoechst+))*100 events per well and normalized to the percent infection when an irrelevant, non-neutralizing, or no antibody was used.
The student's unpaired, two tailed t tests were performed using the GraphPad Prism software (La Jolla, CA). An asterisk identifies statistical significance of P<0.05 or less.

[5] = test system: HCMV gB (U373-gB cells); assay: Flow cytometry binding to U373-gB cells; set-up: species or system Human cytomegalovirus
[6] = test system: CMV TB40/E infected fibroblasts; assay: SCID mouse gelfoam implant model of CMV proliferation; format: in vivo, SCID mice; conditions: fully human mAbs 4 or 18 mg/kg, ganciclovir 50 mg/kg; i.p. every three days; day ten; versus isotype control
Method: At day ten post-implantation, the cells were released from the gelfoam and DNA extracted from the cells was subjected to qPCR for the HCMV UL123 and β-actin genes. The relative CMV levels cells were determined from Ct values of qPCR analysis (in triplicate) from cells collected from three mice/treatment. Statistical tests were performed using ordinary one-way ANOVA with comparisons to isotype treated cells as a control and a Dunnett's post-test; **, p<0.01; ***, p<0.001; ****, p<0.0001.
The gelfoam was implanted subcutaneously in three mice per group. […] Treatments were administrated every three days for nine days. At day ten post-implant, the gelfoam was removed and cells were released from the gel foam by collagenase treatment. The total DNA was harvest from the cells, quantified, and subjected to qPCR for UL123 (CMV gene) and b-actin (housekeeping geen) using SYBR green to evaluate virus proliferation. The qPCR analysis was performed in triplicate from three animals to determine the Ct values for UL123 and b-actin to calculate the relative levels of CMV DNA from the gelfoam samples.

[7] = target: T1, gH/gL/gO trimer (Human cytomegalovirus, UniProt F5HCH8+Q6SW67, DEL177-177/E103D/E61Q/G77R); assay: Binding to 293 Expi cells transfected with gH/gL/gO; conditions: 3 days post transfection
T1 construct: expressed in transfected cells; host or cells: 293 Expi (Expi293F) cells
Method: (§1) gH mutants were cloned into pcDNA 3.1 and co-transfected with gL (1:1 ratio, 6 μg plasmid total) with lipofectamine 2000 (Thermo Fisher, #11668019) into 293Expi cells (7.5×10^6). Cells were harvested 3 days post transfection and fixed before being incubated with α-gH antibodies (2 μg/mL) for 1 hr at RT. Cells were washed and then incubated in anti-mouse AF647 conjugated secondary (1:1000) in order to quantify binding. Transfection efficiency was determined using pMAX eGFP plasmid which was spiked in at 0.1 μg per well.
(§2) To examine this further, 293 Expi cells were transfected with wildtype gH, wildtype gL, cotransfected with gH and gL (gH+gL), transfected with a single plasmid expressing both gH and gL (gH/gL) or co-transfected a variety of gH mutants and gL. Three days post transfection the cells were harvested and stained with unlabeled primary at 0.5 μg/mL using the antibodies indicated. Transfection efficiency was determined by measuring GFP expression on day 3 and binding was determined by percent Alexa Fluor 647 positive cells using a conjugated secondary. […] The binding profile for 1G9 is most similar to 10F8. Although the ratios of gH, gL and gO plasmid were 1:1:1 it is not certain how efficiently the trimer was assembled following transfection. […]

[8] = target: T2, gH monomer (Human cytomegalovirus, UniProt Q6SW67); assay: Binding to 293 Expi cells transfected with gH alone; conditions: 3 days post transfection
T2 construct: expressed in transfected cells; host or cells: 293 Expi (Expi293F) cells
Method: as §1, §2

Molecule	IC50 / neutralizing capacity of fully human version compared to chimeric counterpart [1]	limiting viral dissemination at low concentration [2]	kon [3] [M⁻¹ s⁻¹]	kdis [3] [s⁻¹]	rank of binding constant within the panel ([3]; recombinant pentamer)	neutralization of infection across all strains [4]	binding to the surface of U373-gB cells ([5]; live cells, surface)	binding to U373-gB cells fixed and permeabilized ([5]; permeabilized cells)	CMV DNA levels (UL123 relative to β-actin, qPCR) [6]	binding to cells transfected with gH/gL/gO [7]	binding to cells transfected with gH alone [8]
B1	improved IC50 values	effective	24400	0.00158	weakest						
B2	improved IC50 values		12900	6.51e-05		consistently neutralized infection	bind non-specifically	does not significantly bind	limit CMV infection and proliferation		
B3	remained unchanged		24800	8.6e-05		consistently neutralized infection			limit CMV infection and proliferation	bound	bound
